Target: T1, SARS-CoV-2 S protein extracellular domain (S-ECD), prefusion-stabilised trimer (SARS-CoV-2, Wuhan-Hu-1 (wild type), UniProt P0DTC2, proline substitution at residue 986 | proline substitution at residue 987 | …)
T1 construct: also called trimeric SARS-CoV-2 S protein; S trimer
Experiment: cryo-EM structure
Conditions: both partners purified

B1: 7B8 Fab fragment (Fab, V domains shown)
VH: QVQLVESGGGVVQPGRSLRLSCAASGFIFSSYGMHWVRQAPGKGLEWVAVIWFDGSNKYYADSVKGRFTISRDNSKNTLYLQMNSLRAEDTAVYYCARETVSYGMDVWGQGTTVTVSS
VL: NIQMTQSPSAMSASVGDRVTITCRARQGISNYLAWFQQKPGKVPKHLIYAASSLLSGVPSRFSGSGSETEFTLTISSLQPEDFATYYCLQHNSYPYTFGQGTKLEIK
notes: also called Ab4
B1: binds.

From paper PMC8290868 (Cell Discovery, 2021)
